B1: Armadillo segment polarity protein (Drosophila melanogaster (Fruit fly)), P18824 (parent)
chain: MSYMPAQNRTMSHNNQYNPPDLPPMVSAKEQTLMWQQNSYLGDSGIHSGAVTQVPSLSGKEDEEMEGDPLMFDLDTGFPQNFTQDQVDDMNQQLSQTRSQRVRAAMFPETLEEGIEIPSTQFDPQQPTAVQRLSEPSQMLKHAVVNLINYQDDAELATRAIPELIKLLNDEDQVVVSQAAMMVHQLSKKEASRHAIMNSPQMVAALVRAISNSNDLESTKAAVGTLHNLSHHRQGLLAIFKSGGIPALVKLLSSPVESVLFYAITTLHNLLLHQDGSKMAVRLAGGLQKMVTLLQRNNVKFLAIVTDCLQILAYGNQESKLIILASGGPNELVRIMRSYDYEKLLWTTSRVLKVLSVCSSNKPAIVDAGGMQALAMHLGNMSPRLVQNCLWTLRNLSDAATKVEGLEALLQSLVQVLGSTDVNVVTCAAGILSNLTCNNQRNKATVCQVGGVDALVRTIINAGDREEITEPAVCALRHLTSRHVDSELAQNAVRLNYGLSVIVKLLHPPSRWPLIKAVIGLIRNLALCPANHAPLREHGAIHHLVRLLMRAFQDTERQRSSIATTGSQQPSAYADGVRMEEIVEGTVGALHILARESHNRALIRQQSVIPIFVRLLFNEIENIQRVAAGVLCELAADKEGAEIIEQEGATGPLTDLLHSRNEGVATYAAAVLFRMSEDKPQDYKKRLSIELTNSLLREDNNIWANADLGMGPDLQDMLGPEEAYEGLYGQGPPSVHSSHGGRAFHQQGYDTLPIDSMQGLEISSPVGGGGAGGAPGNGGAVGGASGGGGNIGAIPPSGAPTSPYSMDMDVGEIDAGALNFDLDAMPTPPNDNNNLAAWYDTDC
partner: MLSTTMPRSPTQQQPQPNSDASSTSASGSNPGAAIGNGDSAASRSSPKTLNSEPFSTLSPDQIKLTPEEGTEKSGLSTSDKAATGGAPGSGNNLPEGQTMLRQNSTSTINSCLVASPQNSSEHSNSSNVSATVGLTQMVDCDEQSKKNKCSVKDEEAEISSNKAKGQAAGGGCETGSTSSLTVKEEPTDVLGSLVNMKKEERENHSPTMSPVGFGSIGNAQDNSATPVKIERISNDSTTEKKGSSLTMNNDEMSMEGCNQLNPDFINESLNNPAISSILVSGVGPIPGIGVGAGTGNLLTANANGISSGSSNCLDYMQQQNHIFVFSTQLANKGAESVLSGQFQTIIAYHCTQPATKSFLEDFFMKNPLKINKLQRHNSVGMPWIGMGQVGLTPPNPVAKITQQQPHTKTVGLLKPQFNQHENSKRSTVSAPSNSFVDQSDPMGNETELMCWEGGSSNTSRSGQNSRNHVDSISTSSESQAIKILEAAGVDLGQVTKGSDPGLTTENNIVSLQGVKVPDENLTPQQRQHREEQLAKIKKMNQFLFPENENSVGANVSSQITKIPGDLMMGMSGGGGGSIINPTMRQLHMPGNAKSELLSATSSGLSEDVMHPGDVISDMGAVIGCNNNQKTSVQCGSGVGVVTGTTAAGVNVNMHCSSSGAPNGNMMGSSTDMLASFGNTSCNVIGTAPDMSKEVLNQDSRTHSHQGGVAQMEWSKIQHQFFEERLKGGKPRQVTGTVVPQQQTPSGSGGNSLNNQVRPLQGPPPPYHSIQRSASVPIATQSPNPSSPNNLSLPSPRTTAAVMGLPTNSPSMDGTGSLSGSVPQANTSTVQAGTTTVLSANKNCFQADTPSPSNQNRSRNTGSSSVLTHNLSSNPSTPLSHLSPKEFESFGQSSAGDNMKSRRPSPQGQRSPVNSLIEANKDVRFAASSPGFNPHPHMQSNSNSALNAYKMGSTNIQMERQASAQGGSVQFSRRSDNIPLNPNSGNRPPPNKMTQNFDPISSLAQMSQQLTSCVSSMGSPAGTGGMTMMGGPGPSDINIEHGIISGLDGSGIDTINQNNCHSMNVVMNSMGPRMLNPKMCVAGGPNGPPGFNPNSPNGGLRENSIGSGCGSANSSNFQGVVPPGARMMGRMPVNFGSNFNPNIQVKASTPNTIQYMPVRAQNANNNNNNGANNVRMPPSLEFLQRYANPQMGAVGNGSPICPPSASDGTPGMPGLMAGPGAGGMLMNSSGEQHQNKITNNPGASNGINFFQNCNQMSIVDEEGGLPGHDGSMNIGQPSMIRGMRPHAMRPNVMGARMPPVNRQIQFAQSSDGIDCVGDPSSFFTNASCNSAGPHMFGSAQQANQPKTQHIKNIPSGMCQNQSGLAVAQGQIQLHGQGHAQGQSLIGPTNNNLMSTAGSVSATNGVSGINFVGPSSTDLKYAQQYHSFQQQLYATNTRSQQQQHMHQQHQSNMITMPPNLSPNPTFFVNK
B2: Armadillo segment polarity protein (Drosophila melanogaster (Fruit fly)), P18824 (parent)
chain: B1 chain
partner: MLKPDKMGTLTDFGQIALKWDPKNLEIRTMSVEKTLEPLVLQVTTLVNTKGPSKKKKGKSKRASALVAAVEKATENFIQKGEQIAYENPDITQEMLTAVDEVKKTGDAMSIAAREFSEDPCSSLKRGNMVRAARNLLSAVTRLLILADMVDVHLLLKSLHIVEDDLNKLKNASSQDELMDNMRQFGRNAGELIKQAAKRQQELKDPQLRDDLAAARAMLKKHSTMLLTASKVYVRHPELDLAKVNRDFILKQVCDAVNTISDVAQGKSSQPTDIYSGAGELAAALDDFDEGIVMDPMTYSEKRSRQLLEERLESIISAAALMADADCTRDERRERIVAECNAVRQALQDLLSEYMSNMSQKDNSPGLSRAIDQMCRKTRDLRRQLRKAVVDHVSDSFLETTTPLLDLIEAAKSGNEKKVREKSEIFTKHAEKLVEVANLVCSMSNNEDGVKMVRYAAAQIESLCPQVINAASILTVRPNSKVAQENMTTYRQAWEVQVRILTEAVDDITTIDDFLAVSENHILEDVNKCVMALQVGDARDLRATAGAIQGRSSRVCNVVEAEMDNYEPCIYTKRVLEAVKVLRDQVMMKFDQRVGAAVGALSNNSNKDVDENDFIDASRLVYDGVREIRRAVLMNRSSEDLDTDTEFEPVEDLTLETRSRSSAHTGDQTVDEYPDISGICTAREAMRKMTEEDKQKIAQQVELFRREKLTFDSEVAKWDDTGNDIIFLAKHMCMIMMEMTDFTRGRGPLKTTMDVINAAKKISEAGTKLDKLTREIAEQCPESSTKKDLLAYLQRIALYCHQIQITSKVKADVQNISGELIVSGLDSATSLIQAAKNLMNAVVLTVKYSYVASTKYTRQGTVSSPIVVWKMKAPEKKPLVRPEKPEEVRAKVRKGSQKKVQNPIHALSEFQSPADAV
B3: Armadillo segment polarity protein (Drosophila melanogaster (Fruit fly)), P18824 (parent)
chain: B1 chain
partner: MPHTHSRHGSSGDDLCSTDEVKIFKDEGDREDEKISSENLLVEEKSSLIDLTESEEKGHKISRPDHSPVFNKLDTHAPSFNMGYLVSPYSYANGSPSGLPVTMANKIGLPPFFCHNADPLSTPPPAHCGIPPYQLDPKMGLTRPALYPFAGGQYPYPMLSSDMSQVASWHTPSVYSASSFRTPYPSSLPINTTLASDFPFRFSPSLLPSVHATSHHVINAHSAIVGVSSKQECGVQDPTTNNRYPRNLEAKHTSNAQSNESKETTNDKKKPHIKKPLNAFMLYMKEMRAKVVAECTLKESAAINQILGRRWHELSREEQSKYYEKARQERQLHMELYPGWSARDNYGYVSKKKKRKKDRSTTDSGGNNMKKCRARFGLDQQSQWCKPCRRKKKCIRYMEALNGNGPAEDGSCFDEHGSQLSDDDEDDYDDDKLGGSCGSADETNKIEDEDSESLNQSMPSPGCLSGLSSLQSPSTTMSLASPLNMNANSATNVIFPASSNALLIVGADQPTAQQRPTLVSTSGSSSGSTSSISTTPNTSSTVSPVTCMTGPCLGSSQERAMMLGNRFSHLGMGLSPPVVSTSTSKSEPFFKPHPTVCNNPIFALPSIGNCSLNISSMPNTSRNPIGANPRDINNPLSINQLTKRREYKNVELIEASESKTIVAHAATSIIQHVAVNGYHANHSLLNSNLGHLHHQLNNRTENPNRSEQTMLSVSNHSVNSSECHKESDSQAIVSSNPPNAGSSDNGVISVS

Variants of: B1
Details: with bcl9_drome lgs

Variant	effect of a mutation on the interaction
D172A	disrupting interaction

Variants of: B2
Details: with ctna_drome alpha-Cat

Variant	effect of a mutation on the interaction
Y150A	disrupting interaction

Variants of: B3
Details: with pang1_drome pan

Variant	effect of a mutation on the interaction
D172A	disrupting interaction
